Data: patent publication EP4361176A1

How the values were obtained:
[1] = target: human FcγRIIIa V extracellular domain (human) (UniProt P08637); assay: SPR; KD of G1d divided by KD of this antibody
[2] = target: human FcγRIIa R extracellular domain (human) (UniProt P12318); assay: SPR; KD of G1d divided by KD of this antibody
[3] = target: human FcγRIIIa V extracellular domain (human) (UniProt P08637); assay: SPR; KD for FcγRIIb divided by KD for this FcγR
[4] = target: human FcγRIIa R extracellular domain (human) (UniProt P12318); assay: SPR; KD for FcγRIIb divided by KD for this FcγR
[5] = target: human FcγRIIIa V extracellular domain (human) (UniProt P08637); assay: SPR (Biacore 8K+), captured antibody, 1:1 Langmuir model
[6] = target: human FcγRIIa R extracellular domain (human) (UniProt P12318); assay: as above
[7] = target: human FcγRIIb extracellular domain with C-terminal His-tag (human) (UniProt P31994); assay: SPR; binding amount / that of MDX10D1H-G1m/MDX10D1L-k0MT
Chain of human FcγRIIb extracellular domain with C-terminal His-tag (human) (P31994 43-217): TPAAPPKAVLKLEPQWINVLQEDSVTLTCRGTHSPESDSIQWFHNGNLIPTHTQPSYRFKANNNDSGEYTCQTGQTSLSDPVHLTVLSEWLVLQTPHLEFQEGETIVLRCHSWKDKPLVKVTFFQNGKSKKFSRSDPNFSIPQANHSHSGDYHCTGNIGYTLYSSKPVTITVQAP

[8] = target: human FcγRIIb extracellular domain with C-terminal His-tag (human) (UniProt P31994); assay: SPR (Biacore T200), FcγRIIb 1000 nM, amount bound per unit captured antibody

Chain of H240-GASDALIE/L73-k0 (antibody) (heavy): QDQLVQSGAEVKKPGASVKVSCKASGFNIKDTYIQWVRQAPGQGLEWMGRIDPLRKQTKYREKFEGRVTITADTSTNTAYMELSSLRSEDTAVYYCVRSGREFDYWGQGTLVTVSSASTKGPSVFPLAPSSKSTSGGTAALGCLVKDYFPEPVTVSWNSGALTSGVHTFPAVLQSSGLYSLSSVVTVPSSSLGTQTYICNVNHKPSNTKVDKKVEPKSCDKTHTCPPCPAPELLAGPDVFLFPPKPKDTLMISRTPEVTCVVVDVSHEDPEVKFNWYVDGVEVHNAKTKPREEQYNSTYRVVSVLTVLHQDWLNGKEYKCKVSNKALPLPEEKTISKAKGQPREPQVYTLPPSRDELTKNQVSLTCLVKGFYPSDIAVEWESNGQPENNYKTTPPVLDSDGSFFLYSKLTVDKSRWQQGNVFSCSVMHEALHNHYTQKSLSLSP
Chain of H240-GASDALIE/L73-k0 (antibody) (light): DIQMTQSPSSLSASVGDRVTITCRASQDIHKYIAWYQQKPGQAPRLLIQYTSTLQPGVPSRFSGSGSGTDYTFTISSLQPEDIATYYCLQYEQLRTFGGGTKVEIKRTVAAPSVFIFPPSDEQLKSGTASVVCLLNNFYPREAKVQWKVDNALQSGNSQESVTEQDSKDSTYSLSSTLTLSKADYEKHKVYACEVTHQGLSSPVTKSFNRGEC

Row | Relative value to KD between G1d and hFcgRs [1] | Relative value to KD between G1d and hFcgRs [2] | A/I ratio (KD for FcγRIIb divided by KD for each FcyR) [3] | A/I ratio (KD for FcγRIIb divided by KD for each FcyR) [4] | Kd [5] [nM] | Kd [6] [nM] | Relative binding amount [7] | Binding amount [8] | Substance
1 | 23.6 | 10.3 | 176 | 16.5 | 15.2 | 161 | – | – | H240-GASDALIE/L73-k0 (antibody)
2 | – | – | – | – | – | – | 5.8 | 0.072 | MDX10D1H-GASDIE/MDX10D1L-k0MT (antibody)
3 | – | – | – | – | – | – | – | 0.012 | MDX10D1H-G1m/MDX10D1L-k0MT (antibody)
